# From IntAct's records for PubMed 35512704
# B1: Speckle-type POZ protein (Homo sapiens), O43791 (parent)
# chain: MSRVPSPPPPAEMSSGPVAESWCYTQIKVVKFSYMWTINNFSFCREEMGEVIKSSTFSSGANDKLKWCLRVNPKGLDEESKDYLSLYLLLVSCPKSEVRAKFKFSILNAKGEETKAMESQRAYRFVQGKDWGFKKFIRRDFLLDEANGLLPDDKLTLFCEVSVVQDSVNISGQNTMNMVKVPECRLADELGGLWENSRFTDCCLCVAGQEFQAHKAILAARSPVFSAMFEHEMEESKKNRVEINDVEPEVFKEMMCFIYTGKAPNLDKMADDLLAAADKYALERLKVMCEDALCSNLSVENAAEILILADLHSADQLKTQAVDFINYHASDVLETSGWKSMVVSHPHLVAEAYRSLASAQCPFLGPPRKRLKQS
# partner: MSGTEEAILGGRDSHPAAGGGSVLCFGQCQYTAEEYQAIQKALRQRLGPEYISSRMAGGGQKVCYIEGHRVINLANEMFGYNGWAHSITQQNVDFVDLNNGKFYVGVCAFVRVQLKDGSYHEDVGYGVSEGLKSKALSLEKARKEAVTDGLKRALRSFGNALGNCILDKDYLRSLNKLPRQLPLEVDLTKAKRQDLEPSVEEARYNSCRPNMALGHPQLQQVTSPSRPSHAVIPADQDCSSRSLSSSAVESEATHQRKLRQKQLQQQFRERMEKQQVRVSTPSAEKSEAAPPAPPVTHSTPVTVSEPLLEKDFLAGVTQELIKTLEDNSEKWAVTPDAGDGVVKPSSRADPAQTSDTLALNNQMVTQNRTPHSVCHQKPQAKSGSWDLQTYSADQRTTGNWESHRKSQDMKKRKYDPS
# B2: Speckle-type POZ protein (Homo sapiens), O43791 (parent)
# chain: B1 chain
# partner: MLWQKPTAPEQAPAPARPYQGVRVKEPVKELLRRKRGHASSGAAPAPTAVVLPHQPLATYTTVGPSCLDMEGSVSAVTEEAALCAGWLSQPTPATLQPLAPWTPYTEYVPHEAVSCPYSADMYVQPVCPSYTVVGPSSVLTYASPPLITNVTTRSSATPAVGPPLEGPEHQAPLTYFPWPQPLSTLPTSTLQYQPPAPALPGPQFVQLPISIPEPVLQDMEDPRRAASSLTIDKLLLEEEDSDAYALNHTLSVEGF
# B3: Speckle-type POZ protein (Homo sapiens), O43791 (parent)
# chain: B1 chain
# partner: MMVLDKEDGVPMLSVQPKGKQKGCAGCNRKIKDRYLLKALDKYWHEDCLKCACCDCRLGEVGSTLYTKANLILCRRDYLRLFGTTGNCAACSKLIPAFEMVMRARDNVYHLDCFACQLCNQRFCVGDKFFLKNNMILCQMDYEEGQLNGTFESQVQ
# B4: Speckle-type POZ protein (Homo sapiens), O43791 (parent)
# chain: B1 chain
# partner: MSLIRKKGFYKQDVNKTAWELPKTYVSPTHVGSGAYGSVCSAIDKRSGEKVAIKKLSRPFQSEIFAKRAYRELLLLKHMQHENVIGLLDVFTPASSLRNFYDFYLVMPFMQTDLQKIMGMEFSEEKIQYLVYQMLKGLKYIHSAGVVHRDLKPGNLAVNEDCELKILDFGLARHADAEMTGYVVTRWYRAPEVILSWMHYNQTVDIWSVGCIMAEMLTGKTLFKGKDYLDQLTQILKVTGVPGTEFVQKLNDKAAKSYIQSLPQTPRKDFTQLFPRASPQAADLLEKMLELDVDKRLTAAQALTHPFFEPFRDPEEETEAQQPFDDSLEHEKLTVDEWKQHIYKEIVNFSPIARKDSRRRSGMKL
# B5: Speckle-type POZ protein (Homo sapiens), O43791 (parent)
# chain: B1 chain
# partner: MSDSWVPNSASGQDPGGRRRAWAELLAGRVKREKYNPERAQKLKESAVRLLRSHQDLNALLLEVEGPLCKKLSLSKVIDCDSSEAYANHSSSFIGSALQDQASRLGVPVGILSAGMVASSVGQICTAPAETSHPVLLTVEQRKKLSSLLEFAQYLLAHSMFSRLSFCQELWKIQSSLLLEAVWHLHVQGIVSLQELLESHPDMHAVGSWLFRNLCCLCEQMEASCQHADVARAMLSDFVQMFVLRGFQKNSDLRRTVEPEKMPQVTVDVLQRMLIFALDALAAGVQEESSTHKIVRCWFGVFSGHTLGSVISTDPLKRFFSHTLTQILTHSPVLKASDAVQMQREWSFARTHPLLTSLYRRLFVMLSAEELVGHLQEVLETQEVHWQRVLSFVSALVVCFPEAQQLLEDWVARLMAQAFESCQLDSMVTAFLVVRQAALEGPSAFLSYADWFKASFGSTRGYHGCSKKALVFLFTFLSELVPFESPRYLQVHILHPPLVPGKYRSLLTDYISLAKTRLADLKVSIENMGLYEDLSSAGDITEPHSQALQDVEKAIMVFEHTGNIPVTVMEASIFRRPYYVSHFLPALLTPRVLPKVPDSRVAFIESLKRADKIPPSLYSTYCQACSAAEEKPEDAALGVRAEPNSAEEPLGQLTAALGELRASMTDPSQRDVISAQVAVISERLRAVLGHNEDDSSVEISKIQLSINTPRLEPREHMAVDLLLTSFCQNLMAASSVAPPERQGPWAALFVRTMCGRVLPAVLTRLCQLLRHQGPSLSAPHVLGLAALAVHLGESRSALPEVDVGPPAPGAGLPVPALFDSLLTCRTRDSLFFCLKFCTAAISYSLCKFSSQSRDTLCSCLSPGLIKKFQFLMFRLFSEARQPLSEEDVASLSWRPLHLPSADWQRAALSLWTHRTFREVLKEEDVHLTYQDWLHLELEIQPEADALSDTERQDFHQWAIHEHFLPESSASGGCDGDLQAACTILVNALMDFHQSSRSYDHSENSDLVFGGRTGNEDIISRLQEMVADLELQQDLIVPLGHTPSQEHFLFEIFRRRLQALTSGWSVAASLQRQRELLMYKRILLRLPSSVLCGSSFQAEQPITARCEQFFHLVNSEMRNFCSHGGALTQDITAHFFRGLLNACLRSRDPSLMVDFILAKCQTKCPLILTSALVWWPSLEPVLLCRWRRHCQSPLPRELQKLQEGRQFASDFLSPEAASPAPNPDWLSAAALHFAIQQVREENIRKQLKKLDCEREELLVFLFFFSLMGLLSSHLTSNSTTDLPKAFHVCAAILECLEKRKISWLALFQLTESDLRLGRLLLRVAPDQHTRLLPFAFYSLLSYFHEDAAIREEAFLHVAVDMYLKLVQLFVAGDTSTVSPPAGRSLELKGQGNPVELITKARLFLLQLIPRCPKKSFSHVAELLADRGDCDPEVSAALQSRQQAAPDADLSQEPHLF
# B6: Speckle-type POZ protein (Homo sapiens), O43791 (parent)
# chain: B1 chain
# partner: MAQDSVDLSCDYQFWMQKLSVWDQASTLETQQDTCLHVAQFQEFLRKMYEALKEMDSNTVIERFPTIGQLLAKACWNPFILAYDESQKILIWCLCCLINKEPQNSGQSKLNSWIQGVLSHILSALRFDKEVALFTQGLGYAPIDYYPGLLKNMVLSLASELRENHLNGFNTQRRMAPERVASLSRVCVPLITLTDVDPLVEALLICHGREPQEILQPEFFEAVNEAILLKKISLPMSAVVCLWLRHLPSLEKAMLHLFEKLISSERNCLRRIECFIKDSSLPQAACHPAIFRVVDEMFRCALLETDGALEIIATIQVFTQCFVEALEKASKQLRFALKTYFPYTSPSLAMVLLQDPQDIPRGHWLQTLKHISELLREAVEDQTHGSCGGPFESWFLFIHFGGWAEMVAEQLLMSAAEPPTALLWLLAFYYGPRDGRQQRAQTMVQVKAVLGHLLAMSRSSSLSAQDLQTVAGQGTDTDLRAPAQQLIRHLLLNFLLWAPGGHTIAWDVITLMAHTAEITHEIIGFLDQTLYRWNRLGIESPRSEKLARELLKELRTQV
# B7: Speckle-type POZ protein (Homo sapiens), O43791 (parent)
# chain: B1 chain
# partner: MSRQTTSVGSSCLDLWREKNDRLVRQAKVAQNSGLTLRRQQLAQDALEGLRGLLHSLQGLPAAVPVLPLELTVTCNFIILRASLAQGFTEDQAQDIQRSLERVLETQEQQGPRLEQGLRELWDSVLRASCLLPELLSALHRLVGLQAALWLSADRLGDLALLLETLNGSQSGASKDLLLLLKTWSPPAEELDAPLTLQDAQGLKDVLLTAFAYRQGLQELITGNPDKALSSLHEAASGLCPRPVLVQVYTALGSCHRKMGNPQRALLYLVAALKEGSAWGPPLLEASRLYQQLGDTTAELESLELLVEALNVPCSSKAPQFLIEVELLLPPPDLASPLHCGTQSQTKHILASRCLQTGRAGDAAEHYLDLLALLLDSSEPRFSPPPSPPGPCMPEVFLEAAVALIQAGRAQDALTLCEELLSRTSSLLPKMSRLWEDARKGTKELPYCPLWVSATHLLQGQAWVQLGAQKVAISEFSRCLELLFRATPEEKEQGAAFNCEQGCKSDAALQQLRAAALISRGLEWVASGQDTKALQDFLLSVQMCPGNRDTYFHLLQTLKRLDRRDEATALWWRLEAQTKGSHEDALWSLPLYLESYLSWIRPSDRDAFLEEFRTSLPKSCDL
# Variants of: B1
# Settings: with rad52_human RAD52, P43351
row,effect of a mutation on the interaction,Variant
1,with no effect,F133L

# Variants of: B1
# Settings: with rad52_human RAD52, P43351
# Remark: another data set of the same source
row,effect of a mutation on the interaction,Variant
1,with no effect,F133V

# Variants of: B2
# Settings: with obf1_human POU2AF1, Q16633
row,effect of a mutation on the interaction,Variant
1,with no effect,F133L

# Variants of: B2
# Settings: with obf1_human POU2AF1, Q16633
# Remark: another data set of the same source
row,effect of a mutation on the interaction,Variant
1,with no effect,F133V

# Variants of: B2
# Settings: with obf1_human POU2AF1, Q16633
# Remark: another data set of the same source
row,effect of a mutation on the interaction,Variant
1,with no effect,F102C

# Variants of: B2
# Settings: with obf1_human POU2AF1, Q16633
# Remark: another data set of the same source
row,effect of a mutation on the interaction,Variant
1,with no effect,Y87C

# Variants of: B3
# Settings: with rbtn1_human LMO1, P25800
row,effect of a mutation on the interaction,Variant
1,with no effect,F102C

# Variants of: B3
# Settings: with rbtn1_human LMO1, P25800
# Remark: another data set of the same source
row,effect of a mutation on the interaction,Variant
1,with no effect,Y87C

# Variants of: B3
# Settings: with rbtn1_human LMO1, P25800
# Remark: another data set of the same source
row,effect of a mutation on the interaction,Variant
1,with no effect,F133V

# Variants of: B3
# Settings: with rbtn1_human LMO1, P25800
# Remark: another data set of the same source
row,effect of a mutation on the interaction,Variant
1,with no effect,F133L

# Variants of: B4
# Settings: with mk13_human MAPK13, O15264
row,effect of a mutation on the interaction,Variant
1,with no effect,F133L

# Variants of: B4
# Settings: with mk13_human MAPK13, O15264
# Remark: another data set of the same source
row,effect of a mutation on the interaction,Variant
1,with no effect,F133V

# Variants of: B4
# Settings: with mk13_human MAPK13, O15264
# Remark: another data set of the same source
row,effect of a mutation on the interaction,Variant
1,with no effect,Y87C

# Variants of: B4
# Settings: with mk13_human MAPK13, O15264
# Remark: another data set of the same source
row,effect of a mutation on the interaction,Variant
1,with no effect,F102C

# Variants of: B5
# Settings: with fanca_human FANCA
row,effect of a mutation on the interaction,Variant
1,with no effect,Y87C

# Variants of: B6
# Settings: with fancc_human FANCC
row,effect of a mutation on the interaction,Variant
1,with no effect,Y87C

# Variants of: B6
# Settings: with fancc_human FANCC
# Remark: another data set of the same source
row,effect of a mutation on the interaction,Variant
1,with no effect,F133L

# Variants of: B6
# Settings: with fancc_human FANCC
# Remark: another data set of the same source
row,effect of a mutation on the interaction,Variant
1,with no effect,F133V

# Variants of: B6
# Settings: with fancc_human FANCC
# Remark: another data set of the same source
row,effect of a mutation on the interaction,Variant
1,with no effect,F102C

# Variants of: B7
# Settings: with fancg_human FANCG
row,effect of a mutation on the interaction,Variant
1,with no effect,F102C

# Variants of: B7
# Settings: with fancg_human FANCG
# Remark: another data set of the same source
row,effect of a mutation on the interaction,Variant
1,with no effect,F133L

# Variants of: B7
# Settings: with fancg_human FANCG
# Remark: another data set of the same source
row,effect of a mutation on the interaction,Variant
1,with no effect,F133V

# Variants of: B7
# Settings: with fancg_human FANCG
# Remark: another data set of the same source
row,effect of a mutation on the interaction,Variant
1,with no effect,Y87C
